We go through 2 molecules from publication PMC6113293, “Phosphorylation of ULK1 affects autophagosome fusion and links chaperone-mediated autophagy to macroautophagy” (Nature Communications, 2018).

One assay has as its target T1, GFP-STX17, P56962.
T1 chain: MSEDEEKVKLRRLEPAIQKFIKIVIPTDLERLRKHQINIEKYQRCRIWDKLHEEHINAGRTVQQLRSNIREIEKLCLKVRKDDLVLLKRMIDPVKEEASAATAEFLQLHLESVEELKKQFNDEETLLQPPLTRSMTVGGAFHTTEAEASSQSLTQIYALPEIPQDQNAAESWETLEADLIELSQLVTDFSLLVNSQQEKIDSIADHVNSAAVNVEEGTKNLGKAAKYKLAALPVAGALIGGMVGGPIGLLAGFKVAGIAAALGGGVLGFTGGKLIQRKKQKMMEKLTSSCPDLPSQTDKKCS
Kind of assay: proximity ligation; GFP-STX17 co-transfected with Myc-ULK1 variants or Myc vector into HeLa; anti-Myc and anti-GFP antibodies; with or without serum starvation. The conditions noted are these: remark: other sources report otherwise.

Assay [1] deals with T2, GST-ULK1 279–525 (from bacteria) (UniProt O75385 279-525).
T2 construct: in the vector pGEX-4t-2; source: E. coli BL21 codon plus, purified
T2 sequence (looked up): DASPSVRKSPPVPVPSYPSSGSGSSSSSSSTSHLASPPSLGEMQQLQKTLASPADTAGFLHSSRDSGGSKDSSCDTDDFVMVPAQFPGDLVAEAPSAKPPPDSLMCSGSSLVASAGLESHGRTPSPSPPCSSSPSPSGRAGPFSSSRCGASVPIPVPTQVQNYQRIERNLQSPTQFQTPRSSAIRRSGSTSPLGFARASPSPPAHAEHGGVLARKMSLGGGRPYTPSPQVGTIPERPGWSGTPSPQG
Kind of assay: pull-down; GST-ULK1 279–525 and His-STX17 157–275 purified from bacteria, incubated in IP lysis buffer with glutathione beads for 4 h at 4 °C; western blot with His antibody. The settings on record: both partners purified. (In general: A western blot detects proteins with antibodies after separation by electrophoresis.)

B1: Myc-ULK1 WT, O75385 1-1050 (enzyme)
chain: MEPGRGGTETVGKFEFSRKDLIGHGAFAVVFKGRHREKHDLEVAVKCINKKNLAKSQTLLGKEIKILKELKHENIVALYDFQEMANSVYLVMEYCNGGDLADYLHAMRTLSEDTIRLFLQQIAGAMRLLHSKGIIHRDLKPQNILLSNPAGRRANPNSIRVKIADFGFARYLQSNMMAATLCGSPMYMAPEVIMSQHYDGKADLWSIGTIVYQCLTGKAPFQASSPQDLRLFYEKNKTLVPTIPRETSAPLRQLLLALLQRNHKDRMDFDEFFHHPFLDASPSVRKSPPVPVPSYPSSGSGSSSSSSSTSHLASPPSLGEMQQLQKTLASPADTAGFLHSSRDSGGSKDSSCDTDDFVMVPAQFPGDLVAEAPSAKPPPDSLMCSGSSLVASAGLESHGRTPSPSPPCSSSPSPSGRAGPFSSSRCGASVPIPVPTQVQNYQRIERNLQSPTQFQTPRSSAIRRSGSTSPLGFARASPSPPAHAEHGGVLARKMSLGGGRPYTPSPQVGTIPERPGWSGTPSPQGAEMRGGRSPRPGSSAPEHSPRTSGLGCRLHSAPNLSDLHVVRPKLPKPPTDPLGAVFSPPQASPPQPSHGLQSCRNLRGSPKLPDFLQRNPLPPILGSPTKAVPSFDFPKTPSSQNLLALLARQGVVMTPPRNRTLPDLSEVGPFHGQPLGPGLRPGEDPKGPFGRSFSTSRLTDLLLKAAFGTQAPDPGSTESLQEKPMEIAPSAGFGGSLHPGARAGGTSSPSPVVFTVGSPPSGSTPPQGPRTRMFSAGPTGSASSSARHLVPGPCSEAPAPELPAPGHGCSFADPITANLEGAVTFEAPDLPEETLMEQEHTEILRGLRFTLLFVQHVLEIAALKGSASEAAGGPEYQLQESVVADQISLLSREWGFAEQLVLYLKVAELLSSGLQSAIDQIRAGKLCLSSTVKQVVRRLNELYKASVVSCQGLSLRLQRFFLDKQRLLDRIHSITAERLIFSHAVQMVQSAALDEMFQHREGCVPRYHKALLLLEGLQHMLSDQADIENVTKCKLCIERRLSALLTGICA
Take B1: in the assay with GFP-STX17, P56962, the fold increase of the PLA signal with serum starvation over no starvation turned out to be 2.5 fold.

B2: His-STX17 157–275 (domain or fragment, UniProt P56962 157-275, looked up)
chain: YALPEIPQDQNAAESWETLEADLIELSQLVTDFSLLVNSQQEKIDSIADHVNSAAVNVEEGTKNLGKAAKYKLAALPVAGALIGGMVGGPIGLLAGFKVAGIAAALGGGVLGFTGGKLI
notes: in the vector pET-26b(+); source: E. coli BL21 codon plus, purified; not shown: His6, C-terminal, kept
For the molecule B2, the binding result in assay [1] is reported as “binds”.
